Six molecules from patent publication US20220184177A1 (SAINT JOSEPH S UNIVERSITY, published 2022) can be followed below.

Where no end group is shown, it is not given here. The star is where a group is joined. Biotin = O=C1N[C@H]2[C@H](CS[C@H]2CCCCC(=O)*)N1

The chains are these.
B3: Recombinant Full-Length CAPER HCC1.3 (other)
chain: ADDIDIEAMLEAPYKKDENKLSSANGHEERSKKRKKSKSRSRSHERKRSKSKERKRSRDRERKKSKSRERKRSRSKERRRSRSRSRDRRFRGRYRSPYSGPKFNSAIRGKIGLPHSIKLSRRRSRSKSPFRKDKSPVREPIDNLTPEERDARTVFCMQLAARIRPRDLEEFFSTVGKVRDVRMISDRNSRRSKGIAYVEFVDVSSVPLAIGLTGQRVLGVPIIVQASQAEKNRAAAMANNLQKGSAGPMRLYVGSLHFNITEDMLRGIFEPFGRIESIQLMMDSETGRSKGYGFITFSDSECAKKALEQLNGFELAGRPMKVGHVTERTDASSASSFLDSDELERTGIDLGTTGRLQLMARLAEGTGLQIPPAAQQALQMSGSLAFGAVADLQTRLSQQTEASALAAAASVQPLATQCFQLSNMFNPQTEEEVGWDTEIKDDVIEECNKHGGVIHIYVDKNSAQGNVYVKCPSIAAAIAAVNALHGRWFAGKMITAAYVPLPTYHNLFPDSMTATQLLVPSRR
notes: Bought from R&D Systems; also called full-length recombinant CAPER; CAPER isoform HCC1.3
B4: His-tagged recombinant c-Jun (other, UniProt P05412 1-331, looked up)
chain: MTAKMETTFYDDALNASFLPSESGPYGYSNPKILKQSMTLNLADPVGSLKPHLRAKNSDLLTSPDVGLLKLASPELERLIIQSSNGHITTTPTPTQFLCPKNVTDEQEGFAEGFVRALAELHSQNTLPSVTSAAQPVNGAGMVAPAVASVAGGSGSGGFSASLHSEPPVYANLSNFNPGALSSGGGAPSYGAAGLAFPAQPQQQQQPPHHLPQQMPVQHPRLQALKEEPQTVPEMPGETPPLSPIDMESQERIKAERKRMRNRIAASKCRKRKLERIARLEEKVKTLKAQNSELASTANMLREQVAQLKQKVMNHVNSGCQLMLTQQLQTF
notes: Captured on BLI tips by an anti-his tag antibody; also called c-Jun receptor; c-Jun component of AP-1; not shown: his tag

The target in test [1] is B4. Kind of test: BLI, his-tagged c-Jun captured by anti-his antibody. (BLI is a label-free optical method that tracks binding on a fibre tip over time.)
A further test concerns the target T1, Estrogen Receptor α (UniProt P03372 1-595, limits assumed).
T1 construct: also called ERα; ERa
T1 sequence (looked up): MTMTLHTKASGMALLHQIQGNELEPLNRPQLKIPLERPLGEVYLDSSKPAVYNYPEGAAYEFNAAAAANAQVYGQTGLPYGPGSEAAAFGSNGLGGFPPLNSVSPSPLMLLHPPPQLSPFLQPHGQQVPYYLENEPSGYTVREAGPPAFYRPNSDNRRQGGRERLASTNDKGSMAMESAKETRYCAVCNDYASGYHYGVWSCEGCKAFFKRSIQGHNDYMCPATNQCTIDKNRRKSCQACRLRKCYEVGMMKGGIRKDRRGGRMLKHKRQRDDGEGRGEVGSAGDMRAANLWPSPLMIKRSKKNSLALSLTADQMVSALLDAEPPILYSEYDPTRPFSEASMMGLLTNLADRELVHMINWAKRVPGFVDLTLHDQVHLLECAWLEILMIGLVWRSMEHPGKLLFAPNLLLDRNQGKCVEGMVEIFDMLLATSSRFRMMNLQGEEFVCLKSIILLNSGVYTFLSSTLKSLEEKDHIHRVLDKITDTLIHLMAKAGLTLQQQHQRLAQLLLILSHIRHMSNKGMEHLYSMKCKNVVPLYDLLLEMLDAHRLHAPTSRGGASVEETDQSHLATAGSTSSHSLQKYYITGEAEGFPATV
Kind of test: binding kinetics on ERα (method not described, presumably BLI).

The target of test [2] is B4. Kind of test: BLI (Octet), his-tagged c-Jun captured by anti-his antibody, 1:1 model.
Test [3] has as its target B3. The description is as above.
The target in test [4] is B4. Kind of test: BLI (Octet), His-tagged c-Jun captured on anti-His tips, peptide in solution.

B1: TAT Control Peptide (peptide)
peptide: Biotin-YGRKKRRQRRR
notes: Control peptide; also called TAT only control
For the molecule B1, in test [1], the binding result is “no binding”.

B2: CAPER peptide HCC1.3 (amino acid residues 356-400) (peptide)
peptide: Biotin-RLQLMARLAEGTGLQIPPAAQQALQMSGSLAFGAVADLQTRLSQQ
notes: Custom synthesized (LifeTein), crude purity, N-terminal biotin; A TAT control peptide was run alongside, so the TAT form is possible
As for B2, in the test with Estrogen Receptor α, the Kd was 4.5 nM, the off-rate constant (koff) is 0.000115 s⁻¹ and the on-rate (kon) is 25400 M⁻¹ s⁻¹. In addition, in test [2], the Kd stood at 8.89 nM, the koff stood at 0.000337 s⁻¹ and the kon came to 37900 M⁻¹ s⁻¹.
In the test with Estrogen Receptor α, B3 yielded a Kd of 0.02 nM, a koff of 2.34e-05 s⁻¹ and a kon of 937000 M⁻¹ s⁻¹.
Regarding B4, in test [3], the Kd turned out to be 0.18 nM, the koff stood at 5.66e-05 s⁻¹ and the kon worked out at 312000 M⁻¹ s⁻¹.

B5: CAPER peptide Scrambled (peptide)
peptide: Biotin-VGDALQGLRLFSTQASIGAQMEQLAAQPLRAGQMLQLAQASPLRT
notes: Control peptide; also called CAPER Scrambled Peptide; CAPER scrambled peptide
With B5, the binding result in test [4] is “no binding (tested: 1000 (no unit printed on the sheet))”.

B6: CAPER peptide HCC1.4 (amino acid residues 356-400) (peptide)
peptide: Biotin-RLQLMARLAEGTGLQIPPAAQQALQMSGSLAFGAVAEFSFVIDLQ
notes: Custom synthesized (LifeTein), crude purity, N-terminal biotin
Turning to B6, in the test with Estrogen Receptor α, the affinity, expressed as Kd, was 30.2 nM; the koff was 0.00172 s⁻¹; the kon came out at 57100 M⁻¹ s⁻¹. In test [2], the Kd was found to be 25.6 nM, the koff came out at 0.00098 s⁻¹ and the kon was determined as 38300 M⁻¹ s⁻¹.

As usually defined, the Kd is the concentration at which binding is half-saturated. A word on the koff: it is the first-order rate constant of dissociation. What is called kon is the rate constant with which the complex forms.
